We go through eight sequences from the supplement of paper PMC10065799, “High-throughput profiling of sequence recognition by tyrosine kinases and SH2 domains using bacterial peptide display” (eLife, 2023).

Series [1] has as its system c-Abl (mouse). The experiment in a line: phosphorylation enrichment, bacterial display (enrichment ratio); higher = better substrate or ligand; peptides without Tyr show the background.
The target in series [2] is Fes (UniProt P07332). The description is as above.
Series [3] deals with EPHB2 (UniProt P29323). Described as above.
Series [4] addresses EPHB1 (UniProt P54762). Described as above.
Series [5] has as its target FGFR3 (UniProt P22607). The series is described as above.
In series [6] the target is Hck (UniProt P08631). The series is described as above.
Series [7] concerns the target Fyn (UniProt P06241). Described as above.
The test system of series [8] is c-Src. Described as above.
For series [9], the system named is Fer (mouse). The description is as above.
Series [10] has as its target Jak2 (UniProt O60674). The description is as above.
The subject of series [11] is AncSZ. The series is described as above.
Series [12] concerns the target MERTK (UniProt Q12866). The description is as above.
The target in series [13] is FGFR1 (UniProt P11362). Described as above.
Series [14] concerns the target Grb2 SH2 (UniProt P62993). Kind of series: SH2 binding enrichment of the phosphorylated peptide, bacterial display (enrichment ratio); higher = better substrate or ligand; peptides without Tyr show the background.
Series [15] addresses c-Src SH2. The series is described as above.
In series [16] the target is SHP2-C SH2. The series is described as above.
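For SH2 binding enrichment of the phosphorylated peptide, bacterial display in this document: peptide library displayed on the E. coli surface as eCPX fusions, selected cells deep-sequenced, score is each peptide's frequency after selection divided by its frequency in the input.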
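For phosphorylation enrichment, bacterial display in this document: 11-residue human phosphosite peptides and single-mutation variants displayed on the E. coli surface, counted by deep sequencing, each peptide's frequency after selection divided by its frequency in the unselected input library; frequency after pTyr selection over input frequency; kinase dosed for 20-30% of maximal phosphorylation in three min.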

Sequence of FGFR3 (P22607 whole entry, looked up): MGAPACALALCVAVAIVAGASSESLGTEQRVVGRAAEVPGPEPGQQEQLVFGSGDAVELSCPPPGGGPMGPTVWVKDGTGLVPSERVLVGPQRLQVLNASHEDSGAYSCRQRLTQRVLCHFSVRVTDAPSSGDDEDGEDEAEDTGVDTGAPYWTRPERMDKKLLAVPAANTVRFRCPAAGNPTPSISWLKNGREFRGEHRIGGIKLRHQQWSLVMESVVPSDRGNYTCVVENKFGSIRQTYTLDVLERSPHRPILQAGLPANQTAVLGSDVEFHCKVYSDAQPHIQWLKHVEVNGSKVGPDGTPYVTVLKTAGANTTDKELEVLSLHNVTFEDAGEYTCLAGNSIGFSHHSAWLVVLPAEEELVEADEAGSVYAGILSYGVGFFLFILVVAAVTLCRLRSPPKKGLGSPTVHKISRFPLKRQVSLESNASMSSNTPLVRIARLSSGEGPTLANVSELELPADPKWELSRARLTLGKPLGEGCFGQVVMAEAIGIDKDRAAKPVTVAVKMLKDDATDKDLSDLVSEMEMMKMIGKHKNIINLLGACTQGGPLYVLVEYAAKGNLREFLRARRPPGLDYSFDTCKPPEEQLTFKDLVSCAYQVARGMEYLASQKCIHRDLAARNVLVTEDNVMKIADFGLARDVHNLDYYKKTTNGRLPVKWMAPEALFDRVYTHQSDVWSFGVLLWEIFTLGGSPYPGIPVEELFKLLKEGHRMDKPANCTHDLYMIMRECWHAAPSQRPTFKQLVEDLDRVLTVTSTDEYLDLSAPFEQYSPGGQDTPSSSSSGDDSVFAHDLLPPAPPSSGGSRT
Sequence of EPHB2 (P29323 whole entry, looked up): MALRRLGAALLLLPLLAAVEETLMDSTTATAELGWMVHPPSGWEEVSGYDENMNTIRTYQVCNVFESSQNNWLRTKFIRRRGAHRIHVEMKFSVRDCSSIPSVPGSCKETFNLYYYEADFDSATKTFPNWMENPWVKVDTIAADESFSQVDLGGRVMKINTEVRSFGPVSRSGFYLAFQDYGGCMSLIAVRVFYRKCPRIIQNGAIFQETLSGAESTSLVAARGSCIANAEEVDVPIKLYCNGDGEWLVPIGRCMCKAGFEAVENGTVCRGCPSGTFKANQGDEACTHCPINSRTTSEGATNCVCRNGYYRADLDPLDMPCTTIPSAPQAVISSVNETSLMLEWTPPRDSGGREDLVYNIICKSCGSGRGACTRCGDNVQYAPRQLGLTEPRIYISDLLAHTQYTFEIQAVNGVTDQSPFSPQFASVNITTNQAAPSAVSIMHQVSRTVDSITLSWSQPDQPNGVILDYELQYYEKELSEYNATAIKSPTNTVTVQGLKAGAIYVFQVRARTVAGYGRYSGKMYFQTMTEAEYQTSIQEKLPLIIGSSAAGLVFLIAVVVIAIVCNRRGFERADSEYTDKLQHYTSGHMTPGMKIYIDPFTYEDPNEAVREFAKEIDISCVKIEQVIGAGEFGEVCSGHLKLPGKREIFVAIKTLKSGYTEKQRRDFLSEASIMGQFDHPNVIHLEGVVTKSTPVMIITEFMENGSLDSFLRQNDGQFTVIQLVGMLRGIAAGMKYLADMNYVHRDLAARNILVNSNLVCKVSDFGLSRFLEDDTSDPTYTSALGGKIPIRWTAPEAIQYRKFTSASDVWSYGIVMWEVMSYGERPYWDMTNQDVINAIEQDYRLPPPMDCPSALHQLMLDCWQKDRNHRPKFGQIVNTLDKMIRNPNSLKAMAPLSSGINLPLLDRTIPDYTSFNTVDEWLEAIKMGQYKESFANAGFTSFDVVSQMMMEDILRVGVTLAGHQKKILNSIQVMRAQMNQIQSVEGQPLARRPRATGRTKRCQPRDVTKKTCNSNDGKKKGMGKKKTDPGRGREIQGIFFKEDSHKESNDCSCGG
Sequence of Grb2 SH2 (P62993 whole entry, looked up): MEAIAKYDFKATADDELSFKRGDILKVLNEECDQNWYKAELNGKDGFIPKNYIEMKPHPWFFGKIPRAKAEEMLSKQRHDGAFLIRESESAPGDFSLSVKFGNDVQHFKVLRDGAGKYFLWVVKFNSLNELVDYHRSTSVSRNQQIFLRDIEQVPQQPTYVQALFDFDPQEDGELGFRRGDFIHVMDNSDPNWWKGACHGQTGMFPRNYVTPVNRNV
Sequence of Jak2 (O60674 whole entry, looked up): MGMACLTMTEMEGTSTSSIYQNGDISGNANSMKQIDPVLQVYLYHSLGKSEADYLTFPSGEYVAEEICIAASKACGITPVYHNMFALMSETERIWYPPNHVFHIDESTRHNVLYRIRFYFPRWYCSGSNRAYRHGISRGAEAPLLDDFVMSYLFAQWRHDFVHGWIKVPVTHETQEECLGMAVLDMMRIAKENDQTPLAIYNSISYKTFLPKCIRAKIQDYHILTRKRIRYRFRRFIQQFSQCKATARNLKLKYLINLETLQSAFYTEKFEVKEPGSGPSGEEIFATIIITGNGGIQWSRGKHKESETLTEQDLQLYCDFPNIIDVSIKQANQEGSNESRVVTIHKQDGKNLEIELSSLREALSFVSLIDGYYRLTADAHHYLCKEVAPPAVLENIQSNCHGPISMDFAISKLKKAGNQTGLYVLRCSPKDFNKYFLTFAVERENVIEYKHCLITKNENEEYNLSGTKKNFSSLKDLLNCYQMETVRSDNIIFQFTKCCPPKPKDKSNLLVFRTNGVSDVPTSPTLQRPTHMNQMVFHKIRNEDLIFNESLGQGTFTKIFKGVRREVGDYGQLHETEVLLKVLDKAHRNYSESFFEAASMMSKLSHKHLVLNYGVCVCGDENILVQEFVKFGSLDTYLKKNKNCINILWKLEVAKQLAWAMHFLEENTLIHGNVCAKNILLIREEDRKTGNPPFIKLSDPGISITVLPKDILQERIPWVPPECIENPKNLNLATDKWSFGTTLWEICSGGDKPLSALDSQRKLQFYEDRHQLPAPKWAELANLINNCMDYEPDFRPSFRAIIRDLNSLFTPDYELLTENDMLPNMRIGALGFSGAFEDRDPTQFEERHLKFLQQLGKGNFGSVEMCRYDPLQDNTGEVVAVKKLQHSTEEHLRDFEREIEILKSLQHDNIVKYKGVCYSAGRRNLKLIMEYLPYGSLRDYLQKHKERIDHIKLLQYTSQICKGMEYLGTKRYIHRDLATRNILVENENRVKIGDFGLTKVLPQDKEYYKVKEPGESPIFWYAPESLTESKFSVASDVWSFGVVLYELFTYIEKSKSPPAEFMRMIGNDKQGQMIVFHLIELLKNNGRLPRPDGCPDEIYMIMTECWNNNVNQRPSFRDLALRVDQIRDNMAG
Sequence of Fyn (P06241 whole entry, looked up): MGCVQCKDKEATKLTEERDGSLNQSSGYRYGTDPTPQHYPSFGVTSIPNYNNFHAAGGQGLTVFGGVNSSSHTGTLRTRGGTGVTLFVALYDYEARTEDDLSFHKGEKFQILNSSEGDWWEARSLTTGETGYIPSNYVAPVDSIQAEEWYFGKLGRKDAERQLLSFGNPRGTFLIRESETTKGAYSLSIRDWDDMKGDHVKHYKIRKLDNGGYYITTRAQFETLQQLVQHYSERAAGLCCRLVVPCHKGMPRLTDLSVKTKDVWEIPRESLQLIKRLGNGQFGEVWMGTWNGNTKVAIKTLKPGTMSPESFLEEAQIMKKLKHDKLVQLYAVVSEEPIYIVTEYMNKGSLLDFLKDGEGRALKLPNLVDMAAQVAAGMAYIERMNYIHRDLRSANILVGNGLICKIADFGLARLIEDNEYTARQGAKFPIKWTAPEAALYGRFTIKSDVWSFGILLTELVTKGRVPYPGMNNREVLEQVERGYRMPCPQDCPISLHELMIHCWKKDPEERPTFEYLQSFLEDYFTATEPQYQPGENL
Sequence of FGFR1 (P11362 whole entry, looked up): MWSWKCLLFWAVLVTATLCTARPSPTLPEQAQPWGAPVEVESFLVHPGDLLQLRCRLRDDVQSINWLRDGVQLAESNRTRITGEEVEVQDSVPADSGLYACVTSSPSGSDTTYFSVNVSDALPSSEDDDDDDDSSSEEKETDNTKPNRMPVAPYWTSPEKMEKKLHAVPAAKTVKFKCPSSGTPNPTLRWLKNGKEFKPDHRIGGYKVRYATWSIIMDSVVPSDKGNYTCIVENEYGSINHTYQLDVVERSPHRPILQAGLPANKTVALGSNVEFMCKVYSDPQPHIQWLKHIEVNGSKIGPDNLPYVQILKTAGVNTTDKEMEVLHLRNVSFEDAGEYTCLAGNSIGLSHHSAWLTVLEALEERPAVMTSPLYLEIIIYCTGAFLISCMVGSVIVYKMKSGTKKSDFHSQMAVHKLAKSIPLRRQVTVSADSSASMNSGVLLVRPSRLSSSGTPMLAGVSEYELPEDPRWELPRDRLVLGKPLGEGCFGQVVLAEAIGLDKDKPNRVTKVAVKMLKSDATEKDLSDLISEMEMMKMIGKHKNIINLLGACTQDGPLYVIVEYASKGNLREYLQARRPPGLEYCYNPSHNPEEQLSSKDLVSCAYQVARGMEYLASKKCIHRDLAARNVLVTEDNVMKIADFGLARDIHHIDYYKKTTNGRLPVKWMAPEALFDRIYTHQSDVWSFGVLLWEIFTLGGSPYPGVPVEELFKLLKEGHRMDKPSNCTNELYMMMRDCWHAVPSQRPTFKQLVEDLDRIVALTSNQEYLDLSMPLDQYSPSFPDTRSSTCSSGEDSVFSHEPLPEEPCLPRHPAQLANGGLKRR

As to EARRVYGDIIH [ALDH5A1_Y175], the phosphorylation enrichment turned out to be 0.596 in series [1]; 0.707 in series [2]; 0.378 in series [3]; 0.41 in series [4]; 0.447 in series [5]; 0.42 in [6]. The phosphorylation enrichment in series [7] is 0.514; in series [8], 0.499; in [9], 0.477; in series [10], 0.517; in [11] it was 0.608; in series [12], 0.408. Also, the phosphorylation enrichment in [13] is 0.426. For the same sequence, the values for the SH2 binding enrichment in series [14], in [15] and in [16] were 0.977, 0.445 and 0.561, respectively.

EEEFFYEKAIL [BCCIP_Y257]: the phosphorylation enrichment is 1.1 in [1]; 1.55 in series [2]; 0.648 in series [3]; 0.622 in [4]; 0.895 in series [5]; 0.811 in series [6]. Further, the phosphorylation enrichment in series [7] turned out to be 0.633; in series [8], 0.89; in series [9], 5.34; in series [10], 1.34; in [11], 1.93; in series [12] it was 0.847. Moreover, the phosphorylation enrichment in series [13] stood at 0.671. In addition, the SH2 binding enrichment in series [14] amounted to 0.981; in series [15] it was 0.655; in series [16] it was 0.685.

Turning to EEQKKNYNAMK [SCN5A_Y1494_Y1494N], the phosphorylation enrichment in series [1] was 0.497; in series [2] it was 0.663; in series [3], 0.364; in series [4], 0.389; in [5] it was 0.399; in series [6] it was 0.351. Also, the phosphorylation enrichment turned out to be 0.291 in series [7]; 0.415 in series [8]; 0.336 in [9]; 0.55 in series [10]; 0.572 in series [11]; 0.395 in series [12]. For the same sequence, the phosphorylation enrichment in series [13] came to 0.433. Further, the results for the SH2 binding enrichment in [14], in series [15] and in series [16] were 0.815, 0.443 and 0.595, respectively.

Take EEQKKYSNAMK [SCN5A_Y1494_Y1495S]: the phosphorylation enrichment was 0.772 in series [1]; 0.723 in [2]; 0.539 in series [3]; 0.429 in [4]; 0.529 in series [5]; 0.37 in series [6]. Besides, the phosphorylation enrichment in series [7] is 0.377; in series [8], 0.404; in series [9] it was 0.353; in [10], 0.56; in [11] it was 0.611; in series [12], 0.327. In series [13], the phosphorylation enrichment turned out to be 0.456. The SH2 binding enrichment in series [14] came to 0.82; in [15], 0.497; in series [16], 0.617.

In the case of EESSHCSTEKE [ADAR_Y587_Y587C], the phosphorylation enrichment in series [1] was 0.559; in series [2], 1.01; in series [3], 0.683; in series [4], 0.631; in [5], 0.663; in series [6], 0.598. Also, the phosphorylation enrichment turned out to be 0.598 in [7]; 0.5 in series [8]; 0.424 in [9]; 0.8 in series [10]; 1.06 in [11]; 0.502 in series [12]. For the same sequence, the phosphorylation enrichment in series [13] came out at 0.593. The results for the SH2 binding enrichment in series [14], in series [15] and in [16] were 0.81, 0.562 and 0.668, respectively.

Regarding EEVGIYRVSGV [BCR_Y1089], the phosphorylation enrichment is 14.1 in [1]; 0.919 in series [2]; 0.434 in series [3]; 0.488 in series [4]; 0.647 in series [5]; 3.09 in [6]. Moreover, the phosphorylation enrichment in series [7] stood at 4.31; in [8], 4.45; in [9] it was 0.504; in [10], 0.794; in series [11], 1.04; in [12], 0.575. Further, the phosphorylation enrichment in series [13] is 0.457. The figures for the SH2 binding enrichment in [14], in series [15] and in series [16] were 0.732, 0.491 and 0.521, respectively.

In the case of EFGRRYGFSRQ [CCDC93_Y209_YF], the phosphorylation enrichment in [1] was determined as 1.42; in series [2] it was 0.634; in series [3], 0.416; in [4], 0.427; in series [5] it was 0.432; in series [6], 0.422. Also, the phosphorylation enrichment turned out to be 0.449 in series [7]; 0.492 in series [8]; 0.338 in [9]; 0.607 in series [10]; 0.621 in [11]; 0.499 in series [12]. For the same sequence, in series [13], the phosphorylation enrichment was 0.43. Besides, the figures for the SH2 binding enrichment in [14], in series [15] and in series [16] were 0.686, 0.546 and 0.508, respectively.

For the sequence EGQKIYIDDNS [PIP4K2A_Y246_N251S], the phosphorylation enrichment in series [1] was 0.689; in series [2], 1.09; in series [3], 0.549; in series [4], 0.499; in series [5], 0.645; in series [6], 0.465. Moreover, the phosphorylation enrichment in series [7] amounted to 0.53; in series [8], 0.526; in [9], 0.459; in series [10], 0.886; in series [11] it was 0.862; in series [12] it was 0.461. Also, the phosphorylation enrichment in series [13] stood at 0.446. The SH2 binding enrichment in series [14] worked out at 0.661; in series [15], 0.538; in series [16], 0.656.
